Key:
[1] = biological target: wild type human CD47 (Acro Biosystems, cat. no. CD7-H5227) (human) (UniProt Q08722); test: SPR, IgG captured, CD47 in flow; exp 3
[2] = biological target: Human CD47-C33G (human) (UniProt Q08722); test: SPR, IgG captured, CD47 in flow; exp 3
[3] = biological target: human CD47 on cells (SHP-77 tumor cells, human red blood cells, CCRF-CEM cells, human CD47 CHO-K1 stable cell line) (human) (UniProt Q08722); test: flow cytometry on SHP-77 cells
[4] = biological target: Human CD47-C33G (human) (UniProt Q08722); test: SPR, IgG captured, CD47 in flow; exp 3; estimated, out of instrument limit
[5] = biological target: human CD47 on cells (SHP-77 tumor cells, human red blood cells, CCRF-CEM cells, human CD47 CHO-K1 stable cell line) (human) (UniProt Q08722); test: flow cytometry on human RBCs
[6] = biological target: wild type human CD47 (Acro Biosystems, cat. no. CD7-H5227) (human) (UniProt Q08722); test: SPR, IgG captured, CD47 in flow; exp 1
[7] = biological target: Human CD47-C33G (human) (UniProt Q08722); test: SPR, IgG captured, CD47 in flow; exp 1
[8] = biological target: wild type human CD47 (Acro Biosystems, cat. no. CD7-H5227) (human) (UniProt Q08722); test: SPR, IgG captured, CD47 in flow; exp 1; remark: listed apart in the source
[9] = biological target: Human CD47-C33G (human) (UniProt Q08722); test: SPR, IgG captured, CD47 in flow; exp 1; remark: listed apart in the source
[10] = biological target: Human CD47-C33G (human) (UniProt Q08722); test: SPR, IgG captured, CD47 in flow; exp 1; estimated, out of instrument limit
[11] = biological target: wild type human CD47 (Acro Biosystems, cat. no. CD7-H5227) (human) (UniProt Q08722); test: SPR, IgG captured, CD47 in flow; exp 2
[12] = biological target: Human CD47-C33G (human) (UniProt Q08722); test: SPR, IgG captured, CD47 in flow; exp 2
[13] = biological target: wild type human CD47 (Acro Biosystems, cat. no. CD7-H5227) (human) (UniProt Q08722); test: SPR, IgG captured, CD47 in flow; exp 4
[14] = biological target: Human CD47-C33G (human) (UniProt Q08722); test: SPR, IgG captured, CD47 in flow; exp 4
[15] = biological target: wild type human CD47 (Acro Biosystems, cat. no. CD7-H5227) (human) (UniProt Q08722); test: SPR, IgG captured, CD47 in flow; exp 2; remark: listed apart in the source
[16] = biological target: Human CD47-C33G (human) (UniProt Q08722); test: SPR, IgG captured, CD47 in flow; exp 2; remark: listed apart in the source
[17] = biological target: human CD47 on cells (SHP-77 tumor cells, human red blood cells, CCRF-CEM cells, human CD47 CHO-K1 stable cell line) (human) (UniProt Q08722); test: flow cytometry on human CD47 CHO-K1 cells; plateau not reached, not accurate
[18] = biological target: human CD47 on cells (SHP-77 tumor cells, human red blood cells, CCRF-CEM cells, human CD47 CHO-K1 stable cell line) (human) (UniProt Q08722); test: cell-based or functional assay
[19] = biological target: Human CD47-C33G (human) (UniProt Q08722); test: SPR, IgG captured, CD47 in flow; exp 2; estimated, out of instrument limit
[20] = biological target: cynomolgus CD47 on CHO-K1 stable cell line (cynomolgus); test: flow cytometry on cynomolgus CD47 CHO-K1 cells; plateau not reached, not accurate
cynomolgus CD47 on CHO-K1 stable cell line (cynomolgus), sequence (chain, as listed by the source): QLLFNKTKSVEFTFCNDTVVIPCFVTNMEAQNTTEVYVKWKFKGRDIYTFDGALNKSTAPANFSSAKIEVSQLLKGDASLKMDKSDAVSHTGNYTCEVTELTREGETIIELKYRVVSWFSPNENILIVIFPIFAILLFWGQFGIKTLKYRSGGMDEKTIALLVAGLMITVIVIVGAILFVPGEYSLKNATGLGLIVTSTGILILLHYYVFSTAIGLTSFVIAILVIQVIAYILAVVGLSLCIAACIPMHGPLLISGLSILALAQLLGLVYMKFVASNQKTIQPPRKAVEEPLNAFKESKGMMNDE

B1: TJC4 positive control antibody (antibody, INN chains, looked up, V domains shown)
VH: EVQLVESGGGLVKPGGSLRLSCAASGLTFERAWMNWVRQAPGKGLEWVGRIKRKTDGETTDYAAPVKGRFSISRDDSKNTLYLQMNSLKTEDTAVYYCAGSNRAFDIWGQGTMVTVSS
VL: DIVMTQSPDSLAVSLGERATINCKSSQSVLYAGNNRNYLAWYQQKPGQPPKLLINQASTRASGVPDRFSGSGSGTEFTLIISSLQAEDVAIYYCQQYYTPPLAFGGGTKLEIK
- Kd [1]: 4.7 nM
- koff [1]: 0.0022 s⁻¹
- kon [1]: 460000 M⁻¹ s⁻¹
- kon [2]: 160000 M⁻¹ s⁻¹
- EC50 [3]: 2.8 nM
- Fitted maximal MFI [3]: 25400 MFI
- Kd [4]: > 630 nM
- koff [4]: > 0.1 s⁻¹
- EC50 [5]: 4.3 nM
- Fitted maximal MFI [5]: 21400 MFI
- Kd [6]: 4.5 nM
- koff [6]: 0.0022 s⁻¹
- kon [6]: 500000 M⁻¹ s⁻¹
- kon [7]: 190000 M⁻¹ s⁻¹
- Kd [8]: 4.4 nM
- koff [8]: 0.0024 s⁻¹
- kon [8]: 550000 M⁻¹ s⁻¹
- Kd [9]: 540 nM
- koff [9]: 0.09 s⁻¹
- kon [9]: 170000 M⁻¹ s⁻¹
- Kd [10]: > 530 nM
- koff [10]: > 0.1 s⁻¹
- Kd [11]: 4.3 nM
- koff [11]: 0.0024 s⁻¹
- kon [11]: 540000 M⁻¹ s⁻¹
- kon [12]: 490000 M⁻¹ s⁻¹
- Kd [13]: 4.7 nM
- koff [13]: 0.0018 s⁻¹
- kon [13]: 380000 M⁻¹ s⁻¹
- Kd [14]: 600 nM
- koff [14]: 0.13 s⁻¹
- kon [14]: 210000 M⁻¹ s⁻¹
- Kd [15]: 4.4 nM
- kon [15]: 550000 M⁻¹ s⁻¹
- Kd [16]: 540 nM
- koff [16]: 0.09 s⁻¹
- kon [16]: 170000 M⁻¹ s⁻¹
- EC50 [17]: 5.7 nM
- CCRF-CEM phagocytosis EC50 [18]: 0.49 nM
- CCRF-CEM phagocytosis, Phagocytosis (%) [18]: 68.6%
- Kd [19]: > 200 nM
- EC50 [20]: 9.7 nM

— patent publication US20260132197A1
